Assay results as given in publication PMC5507911, “Beyond the Debye length in high ionic strength solution: direct protein detection with field-effect transistors (FETs) in human serum”.

B1: CRP aptamer (ssDNA)
DNA: GGCAGGAAGACAAACACGATGGGGGGGTATGATTTGATGTGGTTGTTGCATGATCGTGGTCTGTGGTGCTGT
modifications: 5' thiol (SH)

Legend:
[1] = biological target: T1, C-reactive protein (CRP) in clinical serum (human, UniProt P02741 19-224); test: EDL FET (AlGaN/GaN HEMT) biosensor; undiluted human sera; 0.34-23.2 mg/L CRP; 1X PBS with 1% BSA (or undiluted human serum for CRP), 5 min incubation for HIV-1 RT, no washing; Vd 2 V, Vg pulse 0 to 0.5 V (HIV-1 RT); pH and temperature not stated; conditions: protein: native; chain copies: 5
T1 sequence: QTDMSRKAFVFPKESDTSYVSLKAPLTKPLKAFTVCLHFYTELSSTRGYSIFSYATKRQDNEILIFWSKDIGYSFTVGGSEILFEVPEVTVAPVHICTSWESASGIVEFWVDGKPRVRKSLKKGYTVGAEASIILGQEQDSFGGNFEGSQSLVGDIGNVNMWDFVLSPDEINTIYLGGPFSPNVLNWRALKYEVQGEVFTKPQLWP

[2] = biological target: T2, C-reactive protein (CRP) (UniProt P02741 19-224); test: EDL FET (AlGaN/GaN HEMT) biosensor; 1X PBS with 1% BSA; 1 fM-100 nM CRP; current gain increases with concentration; 1X PBS with 1% BSA (or undiluted human serum for CRP), 5 min incubation for HIV-1 RT, no washing; Vd 2 V, Vg pulse 0 to 0.5 V (HIV-1 RT); pH and temperature not stated; conditions: chain copies: 5
T2 sequence: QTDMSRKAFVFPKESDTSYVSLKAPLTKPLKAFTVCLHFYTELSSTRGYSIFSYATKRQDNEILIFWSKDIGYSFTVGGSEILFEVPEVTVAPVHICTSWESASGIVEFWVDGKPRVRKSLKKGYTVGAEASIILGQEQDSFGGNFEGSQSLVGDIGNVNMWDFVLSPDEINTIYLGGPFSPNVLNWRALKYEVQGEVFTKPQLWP

[3] = biological target: HIV-1 reverse transcriptase (HIV-1 RT) (HIV-1, UniProt P04585;P04585 588-1147;588-1027); test: EDL FET (AlGaN/GaN HEMT) biosensor; 1X PBS with 1% BSA; 1 fM-10 pM RT; current gain decreases with concentration; 1X PBS with 1% BSA (or undiluted human serum for CRP), 5 min incubation for HIV-1 RT, no washing; Vd 2 V, Vg pulse 0 to 0.5 V (HIV-1 RT); pH and temperature not stated; conditions: copies: 1;1

Binder | binding result [1] | binding result [2] | binding result [3]
B1 | binds | binds | 
TTTTTTTATACGTGAGCGTGCTGTCCCCTAAAGGTGATACGTCAGGGG (ssDNA, 5' thiol (SH)) [HIV-1 RT aptamer] |  |  | binds
